Laboratory results taken from publication doi:10.1101/2022.01.13.476167v2.

Legend:
purified protein [1] = substrate: CCCCCC(=O)N[C@H]1CCOC1=O; experiment: purified protein; conditions: 0.05 M phosphate buffer, pH 7.0, 35 °C
purified protein [2] = substrate: CCCCCCCC(=O)N[C@H]1CCOC1=O; experiment: purified protein; conditions: 0.05 M phosphate buffer, pH 7.0, 35 °C

B1: ecPGA (Escherichia coli penicillin G acylase) (Escherichia coli) (protein)
chain 1: EQSSSEIKIVRDEYGMPHIYANDTWHLFYGYGYVVAQDRLFQMEMARRSTQGTVAEVLGKDFVKFDKDIRRNYWPDAIRAQIAALSPEDMSILQGYADGMNAWIDKVNTNPETLLPKQFNTFGFTPKRWEPFDVAMIFVGTMANRFSDSTSEIDNLALLTALKDKYGVSQGMAVFNQLKWLVNPSAPTTIAVQESNYPLKFNQQNSQTA
chain 2: SNMWVIGKSKAQDAKAIMVNGPQFGWYAPAYTYGIGLHGAGYDVTGNTPFAYPGLVFGHNGVISWGSTAGFGDDVDIFAERLSAEKPGYYLHNGKWVKMLSREETITVKNGQAETFTVWRTVHGNILQTDQTTQTAYAKSRAWDGKEVASLLAWTHQMKAKNWQEWTQQAAKQALTINWYYADVNGNIGYVHTGAYPDRQSGHDPRLPVPGTGKWDWKGLLPFEMNPKVYNPQSGYIANWNNSPQKDYPASDLFAFLWGGADRVTEIDRLLEQKPRLTADQAWDVIRQTSRQDLNLRLFLPTLQAATSGLTQSDPRRQLVETLTRWDGINLLNDDGKTWQQPGSAILNVWLTSMLKRTVVAAVPMPFDKWYSASGYETTQDGPTGSLNISVGAKILYEAVQGDKSPIPQAVDLFAGKPQQEVVLAALEDTWETLSKRYGNNVSNWKTPAMALTFRANNFFGVPQAAAEETRHQAEYQNRGTENDMIVFSPTTSDRPVLAWDVVAPGQSGFIAPDGTVDKHYEDQLKMYENFGRKSLWLTKQDVEAHKESQEVLHVQR
Km (purified protein [1]): 590 ± 70 µM | kcat (purified protein [1]): 0.0090 ± 0.0003 s⁻¹ | Km (purified protein [2]): 700 ± 40 µM | kcat (purified protein [2]): 0.0085 ± 0.0003 s⁻¹
